The record followed here is patent publication US12091680B2, “Method for differentiation induction in cultured stem cells” (RIKEN, priority 2009, dated 2024).

The assay deals with Rx-GFP ES cells. Kind of assay: SFEBq culture with purified laminin/entactin and Nodal/Activin, formation of RxGFP+ vesicles and cup structures (Example 6). The format is cell-based, mouse. As to conditions: for replacement of the retinal inducing activity of Nodal: 1000 ng/ml; for replacement of the retinal inducing activity of Nodal / appearance of Rx-GFP+ epithelia in SFEBq aggregates / morphology of Rx-GFP+ epithelia: combined with laminin+entactin; for appearance of Rx-GFP+ epithelia in SFEBq aggregates / morphology of Rx-GFP+ epithelia: treatment days 1-7; for appearance of Rx-GFP+ epithelia in SFEBq aggregates: Nodal 500 and 1000 ng/ml, Activin 250 ng/ml, read on day 7; for morphology of Rx-GFP+ epithelia: day 7 and day 10; for effect on neural (Sox1) and retinal (Rx) differentiation: treatment of SFEBq cells from day 0. As to the method: Rx-GFP ES cells (3000 cells/well, 96-well plate) were cultured in SFEBq culture with G-MEM supplemented with 1.5% KSR. In this experiment, instead of adding Matrigel to culture, purified laminin and entactin (High concentration Laminin/Entactin complex; BD; 120 μg/ml) were added as extracellular matrix proteins on day 1 (24 hours after the onset of differentiation culture). Recombinant Mouse Nodal (R&D; 500-1000 ng/mL) or Human Activin (R&D; 250 ng/ml) was also added on day 1 and the Nodal treatment was continued until day 7. SFEBq aggregates were cultured for 7-10 days and the formation of RxGFP+ vesicles and cup structures were examined under a fluorescent microscope. Nodal and Activin are known to act on common cell surface receptors and activate Smad2/3 signals in the cell.

Take “TGF-beta1: growth factor tested at 1000 ng/ml in place of Nodal”: the “replacement of the retinal inducing activity of Nodal” value is recorded as “did not replace the inducing activity of Nodal”.

B1: TGF-beta2: growth factor tested at 1000 ng/ml in place of Nodal; printed as 'TGF-beta1 or 2' (protein, UniProt P61812 303-414, looked up)
Transforming growth factor …: ALDAAYCFRNVQDNCCLRPLYIDFKRDLGWKWIHEPKGYNANFCAGACPYLWSSDTQHSRVLSLYNTINPEASASPCCVSQDLEPLTILYYIGKTPKIEQLSNMIVKSCKCS
For the molecule B1, the “replacement of the retinal inducing activity of Nodal” value is given as “did not replace the inducing activity of Nodal”.

B2: Nodal: Recombinant Mouse Nodal (R&D); acts on cell surface receptors common with Activin and activates Smad2/3 signals (protein, UniProt P43021 245-354, looked up)
Nodal: HHLPDRSQLCRRVKFQVDFNLIGWGSWIIYPKQYNAYRCEGECPNPVGEEFHPTNHAYIQSLLKRYQPHRVPSTCCAPVKTKPLSMLYVDNGRVLLEHHKDMIVEECGCL
B2: the “appearance of Rx-GFP+ epithelia in SFEBq aggregates” value is reported as “large patches of Rx-GFP+ epithelia appeared”; the “morphology of Rx-GFP+ epithelia” value is “formed optic vesicle-like sacs on day 7 and later exhibited the optic cup-like morphology on day 10”; the “effect on neural (Sox1) and retinal (Rx) differentiation” value is “inhibited both neural (Sox1) and retinal (Rx) differentiation”.

B3: Activin: Human Activin (R&D); acts on cell surface receptors common with Nodal and activates Smad2/3 signals (protein, UniProt P08476 311-426, looked up)
Inhibin beta A chain: GLECDGKVNICCKKQFFVSFKDIGWNDWIIAPSGYHANYCEGECPSHIAGTSGSSLSFHSTVINHYRMRGHSPFANLKSCCVPTKLRPMSMLYYDDGQNIIKKDIQNMIVEECGCS
For the molecule B3, the “appearance of Rx-GFP+ epithelia in SFEBq aggregates” value is “large patches of Rx-GFP+ epithelia appeared”; the “morphology of Rx-GFP+ epithelia” value is “formed optic vesicle-like sacs on day 7 and later exhibited the optic cup-like morphology on day 10”; the “effect on neural (Sox1) and retinal (Rx) differentiation” value was “inhibited both neural (Sox1) and retinal (Rx) differentiation”.
